Laboratory results from publication doi:10.1101/2024.04.29.591687 (bioRxiv, 2024).

Target: T1, tGFP-tagged mCLDN5 (mouse, UniProt O54942 1-218)
T1 sequence: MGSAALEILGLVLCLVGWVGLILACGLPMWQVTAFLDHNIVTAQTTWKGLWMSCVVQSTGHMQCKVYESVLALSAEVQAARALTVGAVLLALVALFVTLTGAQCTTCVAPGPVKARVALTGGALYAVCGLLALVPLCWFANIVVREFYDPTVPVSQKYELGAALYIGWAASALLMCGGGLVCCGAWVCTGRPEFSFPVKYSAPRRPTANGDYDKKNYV
Experiment: MST

## ESVLALNAEVQAAR [f1-C5C2]
  Kd: 68.3 µM
